Values joined by “and” are separate entries in the source; they are usually repeats but may differ in a detail not shown here. Identical values can stand only once.
Target: 80S-like ribosomes (yeast | yeast (endogenous in the yeast strain)) (UniProt Q07381)
Assay: co-sedimentation

Chain of UniProt Q07381 (Q07381 whole entry, looked up): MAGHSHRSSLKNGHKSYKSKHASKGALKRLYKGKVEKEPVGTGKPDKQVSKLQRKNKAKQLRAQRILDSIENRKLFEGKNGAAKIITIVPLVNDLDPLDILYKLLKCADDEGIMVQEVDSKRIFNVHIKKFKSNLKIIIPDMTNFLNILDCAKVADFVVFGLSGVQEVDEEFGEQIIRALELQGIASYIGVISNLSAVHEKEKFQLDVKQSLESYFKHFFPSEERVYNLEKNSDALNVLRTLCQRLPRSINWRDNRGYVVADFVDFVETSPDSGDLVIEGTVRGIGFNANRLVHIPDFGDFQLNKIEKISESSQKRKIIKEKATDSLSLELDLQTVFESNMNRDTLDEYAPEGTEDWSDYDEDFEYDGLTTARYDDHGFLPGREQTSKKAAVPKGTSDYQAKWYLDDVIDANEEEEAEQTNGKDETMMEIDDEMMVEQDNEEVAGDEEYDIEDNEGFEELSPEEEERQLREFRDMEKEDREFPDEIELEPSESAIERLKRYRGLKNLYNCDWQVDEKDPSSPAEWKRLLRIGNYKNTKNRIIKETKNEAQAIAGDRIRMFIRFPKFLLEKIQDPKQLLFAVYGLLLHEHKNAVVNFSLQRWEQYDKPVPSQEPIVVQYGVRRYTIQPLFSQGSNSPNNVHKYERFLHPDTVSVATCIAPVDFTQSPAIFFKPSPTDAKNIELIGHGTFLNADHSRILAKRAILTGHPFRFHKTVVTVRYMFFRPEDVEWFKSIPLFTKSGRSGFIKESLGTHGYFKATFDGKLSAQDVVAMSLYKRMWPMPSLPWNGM

fold change of bound Fap7 against Fap7 alone: 2 fold and 3 fold
Substance: Fap7+SUMO-Rps14 complex (from UniProt Q12055 1-197)

— PMC7812869
